Key:
[1] = biological target: T1, human OX40 (TNFRSF4, CD134) on cells (human, UniProt P43489 29-277); assay: cell-based or functional assay
T1 sequence: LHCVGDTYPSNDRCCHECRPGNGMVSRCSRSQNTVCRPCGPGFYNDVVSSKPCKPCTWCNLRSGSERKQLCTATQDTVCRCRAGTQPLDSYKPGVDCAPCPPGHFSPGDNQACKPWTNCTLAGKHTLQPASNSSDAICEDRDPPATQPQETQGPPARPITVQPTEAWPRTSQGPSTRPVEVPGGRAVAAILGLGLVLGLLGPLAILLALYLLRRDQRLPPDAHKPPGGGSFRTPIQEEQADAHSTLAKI

[2] = biological target: T1, human OX40 (TNFRSF4, CD134) on cells; assay: cell-based or functional assay; remark: listed apart in the source
[3] = biological target: T1, human OX40 (TNFRSF4, CD134) on cells; assay: flow cytometry on Jurkat-NFκB (OX40) cells, detection with anti-human IgG Fc-AF647
[4] = biological target: Human CD64 (FcγRI), Sino Biological 10256-H08H (human, UniProt P12314 16-288); assay: SPR Biacore 8K+, receptor captured by anti-His, antibody as analyte
Human CD64 (FcγRI), Sino Biological 10256-H08H, sequence (P12314 16-288 limits assumed): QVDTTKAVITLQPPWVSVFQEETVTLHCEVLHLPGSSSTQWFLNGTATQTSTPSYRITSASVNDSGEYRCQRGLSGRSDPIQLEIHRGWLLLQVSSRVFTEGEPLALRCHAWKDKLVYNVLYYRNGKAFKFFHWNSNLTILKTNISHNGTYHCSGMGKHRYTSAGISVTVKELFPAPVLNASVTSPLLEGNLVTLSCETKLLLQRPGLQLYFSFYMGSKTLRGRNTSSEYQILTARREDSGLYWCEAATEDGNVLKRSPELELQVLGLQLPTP
Experimental: (§1) Measurements were performed on a Biacore 8K+ instrument (Cytiva Life Sciences) using the Biacore 8K+ Control Software and analyzed with the Biacore Insight Evaluation Software (v3.0). […] After each binding event, baseline levels were restored using a regeneration solution on both flow-paths. HBS-EP+pH 7.4 solution were used as running buffer. Data was analyzed using the MCK evaluation method of the Biacore Insight Evaluation Software and kinetic parameters were determined using the 1:1 binding and steady-state affinity methods.
(§2) Each measurement is the mean of three identical replicate conditions.

[5] = biological target: T2, Human CD16a (176F), Sino Biological 10389-H08H (human, UniProt P08637 17-208); assay: as above
T2 construct: also called FcγRIIIa176F
T2 sequence (P08637 17-208 limits assumed): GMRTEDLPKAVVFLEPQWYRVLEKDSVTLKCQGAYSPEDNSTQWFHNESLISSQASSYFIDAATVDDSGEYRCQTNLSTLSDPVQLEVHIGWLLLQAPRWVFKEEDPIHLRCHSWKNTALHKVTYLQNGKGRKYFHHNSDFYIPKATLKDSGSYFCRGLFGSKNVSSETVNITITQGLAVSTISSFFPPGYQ
Experimental: as §1, §2

[6] = biological target: T3, Human CD16a (F176V), Sino Biological 10389-H08H1 (human, UniProt P08637 17-208); assay: as above
T3 construct: also called FcγRIIIa176V
T3 sequence (P08637 17-208 F176V limits assumed): as the sequence (P08637 17-208 limits assumed) above, with F160V counted along it
Experimental: as §1, §2

[7] = biological target: T4, Human CD16b (NA2 allotype), Sino Biological 11046-H08H (human, UniProt O75015 17-200); assay: as above
T4 construct: also called FcγRIIIb
T4 sequence (O75015 17-200 N65S limits assumed): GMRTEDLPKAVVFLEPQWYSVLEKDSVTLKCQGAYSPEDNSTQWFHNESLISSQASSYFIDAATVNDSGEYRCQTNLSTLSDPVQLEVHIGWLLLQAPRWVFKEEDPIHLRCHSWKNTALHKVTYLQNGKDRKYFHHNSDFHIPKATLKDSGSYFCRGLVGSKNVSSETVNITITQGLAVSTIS
Experimental: as §1, §2

[8] = biological target: T5, Human CD32a (167 Arg), Sino Biological 10374-H08H (human, UniProt P12318 34-218); assay: as above
T5 construct: also called FcγRIIa167R
T5 sequence (looked up): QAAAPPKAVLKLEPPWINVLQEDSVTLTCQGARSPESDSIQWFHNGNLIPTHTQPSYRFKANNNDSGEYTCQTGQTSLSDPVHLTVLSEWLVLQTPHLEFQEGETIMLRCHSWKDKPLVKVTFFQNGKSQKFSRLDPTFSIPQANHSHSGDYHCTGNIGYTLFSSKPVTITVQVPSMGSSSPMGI
Experimental: as §1, §2

[9] = biological target: T6, Human CD32a (167 His), Sino Biological 10374-H08H1 (human, UniProt P12318 34-218); assay: as above
T6 construct: also called FcγRIIa167H
T6 sequence (looked up): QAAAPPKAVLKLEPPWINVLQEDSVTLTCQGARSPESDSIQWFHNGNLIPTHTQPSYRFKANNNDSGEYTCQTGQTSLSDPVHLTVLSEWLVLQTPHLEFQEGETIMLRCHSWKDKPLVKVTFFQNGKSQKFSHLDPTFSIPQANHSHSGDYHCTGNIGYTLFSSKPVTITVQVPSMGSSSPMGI
Experimental: as §1, §2

[10] = biological target: T7, Human CD32b, Sino Biological 10259-H08H (human, UniProt P31994 43-217); assay: as above
T7 construct: also called FcγRIIb
T7 sequence (looked up): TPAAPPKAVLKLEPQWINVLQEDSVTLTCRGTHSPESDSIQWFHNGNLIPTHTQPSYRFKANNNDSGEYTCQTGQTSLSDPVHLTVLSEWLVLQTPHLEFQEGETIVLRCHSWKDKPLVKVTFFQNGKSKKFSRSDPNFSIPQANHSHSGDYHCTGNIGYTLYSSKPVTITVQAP
Experimental: as §1, §2

human OX40-ECD-his = biological target: T8, human OX40-ECD-his (human, UniProt P43489 29-214); assay: ELISA, scFv supernatant on coated human OX40-ECD-his, anti-c-myc detection
T8 construct: whole entry named
T8 sequence: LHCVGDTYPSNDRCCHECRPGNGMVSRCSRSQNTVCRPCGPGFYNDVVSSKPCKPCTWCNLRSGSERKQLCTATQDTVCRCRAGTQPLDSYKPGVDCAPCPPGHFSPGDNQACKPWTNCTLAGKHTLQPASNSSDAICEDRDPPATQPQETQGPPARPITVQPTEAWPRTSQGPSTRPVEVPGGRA
Experimental: The binding of scFv clones was assessed by ELISA. Individual E. coli colonies from the second round of selection were picked and grown in 2YT ampicillin medium (96-well deep well plates). ScFv expression was induced by addition of 1 mM of IPTG and incubation ON at 30° C. and 250 RPM. Cells were centrifuged and culture supernatant were used for screening. RIA/EIA plates were coated with either 200 ng/well of human OX40-ECD-his or cynomolgus OX40-ECD-Fc. In order to discriminate potential antibodies selected against the Fc fragment, a plate was also coated with an irrelevant Fc fused antigen. The plates were then blocked with PBS supplemented with 3% Bovine Serum Albumin (BSA). 80 μL of bacteria culture supernatants were then mixed with 20 μl of 3% BSA and added to the blocked plates for 1 hr at room temperature. Bound scFvs were detected using a biotinylated chicken anti-c-myc antibody diluted 1:5000 in PBS-0.3% BSA incubated for 1 hr at RT, followed by staining with the Pierce High Sensitivity Streptavidin-HRP reagent diluted 1:8000 in PBS-0.3% BSA for 30 min at RT. Plates were extensively washed using PBS supplemented with 0.05% Tween 20 between each incubation step. […] Clones that bound specifically to both human and cynomolgus OX40 but not to irrelevant antigen-Fc fusion protein were DNA sequenced.

B1: OX40L (recombinant human OX40 ligand) (ligand, UniProt P23510 51-183, looked up)
chain: QVSHRYPRIQSIKVQFTEYKKEKGFILTSQKEDEIMKVQNNSVIINCDGFYLISLKGYFSQEVNISLHYQKDEEPLFQLKKVRSVNSLMVASLTYKDKVYLNVTTDNTSLDDFHVNGGELILIHQNPGEFCVL
- luminescence, Jurkat-NFκB-OX40 agonism assay [1]: 8 fold
- average proliferation index (Av), coated T cell agonism assay [2]: 5.61

B2: OX40L (P865) (Fc fusion, human, UniProt P23510 51-183, looked up)
OX40L-Fc chain: QVSHRYPRIQSIKVQFTEYKKEKGFILTSQKEDEIMKVQNNSVIINCDGFYLISLKGYFSQEVNISLHYQKDEEPLFQLKKVRSVNSLMVASLTYKDKVYLNVTTDNTSLDDFHVNGGELILIHQNPGEFCVL
notes: the sheet prints OX40L (P865) in the legend box and OX40L (P685) beside the curve; also called OX40L-Fc; OX40L (P685)
- EC50 (read off the curve) [3]: ~0.2 µg/mL

B3: MAB11 (antibody, human IgG1, kappa)
heavy: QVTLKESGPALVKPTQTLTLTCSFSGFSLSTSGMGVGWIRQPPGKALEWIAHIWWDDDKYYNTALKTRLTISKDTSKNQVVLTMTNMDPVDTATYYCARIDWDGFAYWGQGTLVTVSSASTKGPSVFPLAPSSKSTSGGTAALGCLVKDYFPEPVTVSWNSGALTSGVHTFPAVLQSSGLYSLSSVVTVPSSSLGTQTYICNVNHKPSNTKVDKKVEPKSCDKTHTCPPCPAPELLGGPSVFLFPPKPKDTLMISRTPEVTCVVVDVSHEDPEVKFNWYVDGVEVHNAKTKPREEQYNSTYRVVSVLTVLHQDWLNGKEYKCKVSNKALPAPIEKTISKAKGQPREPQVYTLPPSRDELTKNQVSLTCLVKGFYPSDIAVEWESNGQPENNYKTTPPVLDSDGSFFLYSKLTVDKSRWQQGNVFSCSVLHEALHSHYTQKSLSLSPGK
light: EIVLTQSPATLSLSPGERATLSCRASSSVSYMHWYQQKPGQAPRPWIYATSNRATGIPARFSGSGSGTDYTLTISSLEPEDFAVYYCQQFGAWPWTFGQGTKVEIKRTVAAPSVFIFPPSDEQLKSGTASVVCLLNNFYPREAKVQWKVDNALQSGNSQESVTEQDSKDSTYSLSSTLTLSKADYEKHKVYACEVTHQGLSSPVTKSFNRGEC
notes: IgG1 with M428L and N434S; also called MAB1 Heavy Chain + LS
- Kd [4]: 0.0063 µM
- Kd [5]: 0.246 µM
- Kd [6]: 0.221 µM
- Kd [7]: 2.74 µM
- Kd [8]: 5.43 µM
- Kd [9]: 3.38 µM
- Kd [10]: 9.88 µM

B4: MAB8 scFv clone (scFv)
scFv: QVTLKESGPALVKPTQTLTLTCSFSGFSLSTSGMGVGWIRQPPGKALEWIAHIWWDDDKYYNTALKTRLTISKDTSKNQVVLTMTNMDPVDTATYYCARIDWDGFAYWGQGTLVTVSSGGGGSGGGGSGGGGSEIVLTQSPATLSLSPGERATLSCRASSSVSYMHWYQQKPGQAPRPWIYATSNRATGIPARFSGSGSGTDYTLTISSLEPEDFAVYYCQQTVAWPWTFGQGTKVEIK
- binding result (human OX40-ECD-his): binds

B5: MAB7 scFv clone (scFv)
scFv: QVTLKESGPALVKPTQTLTLTCSFSGFSLSTSGMGVGWIRQPPGKALEWIAHIWWDDDKYYNTALKTRLTISKDTSKNQVVLTMTNMDPVDTATYYCARIDWDGFAYWGQGTLVTVSSGGGGSGGGGSGGGGSEIVLTQSPATLSLSPGERATLSCRASSSVSYMHWYQQKPGQAPRPWIYATSNRATGIPARFSGSGSGTDYTLTISSLEPEDFAVYYCQQMEFTPWTFGQGTKVEIK
- binding result (human OX40-ECD-his): binds

B6: MAB5 scFv clone (scFv)
scFv: QVTLKESGPALVKPTQTLTLTCSFSGFSLSTSGMGVGWIRQPPGKALEWIAHIWWDDDKYYNTALKTRLTISKDTSKNQVVLTMTNMDPVDTATYYCARIDWDGFAYWGQGTLVTVSSGGGGSGGGGSGGGGSEIVLTQSPATLSLSPGERATLSCRASSSVSYMHWYQQKPGQAPRPWIYATSNRATGIPARFSGSGSGTDYTLTISSLEPEDFAVYYCQQTLHYPWTFGQGTKVEIK
- binding result (human OX40-ECD-his): binds

B7: MAB2 scFv clone (scFv)
scFv: QVTLKESGPALVKPTQTLTLTCSFSGFSLSTSGMGVGWIRQPPGKALEWIAHIWWDDDKYYNTALKTRLTISKDTSKNQVVLTMTNMDPVDTATYYCARIDWDGFAYWGQGTLVTVSSGGGGSGGGGSGGGGSEIVLTQSPATLSLSPGERATLSCRASSSVSYMHWYQQKPGQAPRPWIYATSNRATGIPARFSGSGSGTDYTLTISSLEPEDFAVYYCQQFGDPPWTFGQGTKVEIK
- binding result (human OX40-ECD-his): binds

B8: MAB4 scFv clone (scFv)
scFv: QVTLKESGPALVKPTQTLTLTCSFSGFSLSTSGMGVGWIRQPPGKALEWIAHIWWDDDKYYNTALKTRLTISKDTSKNQVVLTMTNMDPVDTATYYCARIDWDGFAYWGQGTLVTVSSGGGGSGGGGSGGGGSEIVLTQSPATLSLSPGERATLSCRASSSVSYMHWYQQKPGQAPRPWIYATSNRATGIPARFSGSGSGTDYTLTISSLEPEDFAVYYCQQTLLFPWTFGQGTKVEIK
- binding result (human OX40-ECD-his): binds

B9: MAB9 scFv clone (scFv)
scFv: QVTLKESGPALVKPTQTLTLTCSFSGFSLSTSGMGVGWIRQPPGKALEWIAHIWWDDDKYYNTALKTRLTISKDTSKNQVVLTMTNMDPVDTATYYCARIDWDGFAYWGQGTLVTVSSGGGGSGGGGSGGGGSEIVLTQSPATLSLSPGERATLSCRASSSVSYMHWYQQKPGQAPRPWIYATSNRATGIPARFSGSGSGTDYTLTISSLEPEDFAVYYCQAASSSSLEFGQGTKVEIK
- binding result (human OX40-ECD-his): binds

B10: MAB3 scFv clone (scFv)
scFv: QVTLKESGPALVKPTQTLTLTCSFSGFSLSTSGMGVGWIRQPPGKALEWIAHIWWDDDKYYNTALKTRLTISKDTSKNQVVLTMTNMDPVDTATYYCARIDWDGFAYWGQGTLVTVSSGGGGSGGGGSGGGGSEIVLTQSPATLSLSPGERATLSCRASSSVSYMHWYQQKPGQAPRPWIYATSNRATGIPARFSGSGSGTDYTLTISSLEPEDFAVYYCQQTIEWPWTFGQGTKVEIK
- binding result (human OX40-ECD-his): binds

B11: MAB1 scFv clone (scFv)
scFv: QVTLKESGPALVKPTQTLTLTCSFSGFSLSTSGMGVGWIRQPPGKALEWIAHIWWDDDKYYNTALKTRLTISKDTSKNQVVLTMTNMDPVDTATYYCARIDWDGFAYWGQGTLVTVSSGGGGSGGGGSGGGGSEIVLTQSPATLSLSPGERATLSCRASSSVSYMHWYQQKPGQAPRPWIYATSNRATGIPARFSGSGSGTDYTLTISSLEPEDFAVYYCQQFGAWPWTFGQGTKVEIK
notes: Phage library scFv in bacterial culture supernatant
- binding result (human OX40-ECD-his): binds

B12: MAB6 scFv clone (scFv)
scFv: QVTLKESGPALVKPTQTLTLTCSFSGFSLSTSGMGVGWIRQPPGKALEWIAHIWWDDDKYYNTALKTRLTISKDTSKNQVVLTMTNMDPVDTATYYCARIDWDGFAYWGQGTLVTVSSGGGGSGGGGSGGGGSEIVLTQSPATLSLSPGERATLSCRASSSVSYMHWYQQKPGQAPRPWIYATSNRATGIPARFSGSGSGTDYTLTISSLEPEDFAVYYCQQWETWPWTFGQGTKVEIK
- binding result (human OX40-ECD-his): binds

Reference: patent US20250353921A1 (ASTRIA THERAPEUTICS, published 2025)
